Test [1] addresses human LH/CGR (wild type, without BRET fusion) (human) (UniProt P22888).
Test [2] concerns the target hLH/CGR C-terminally fused to the BRET donor Rluc8 (human) (UniProt P22888).
Test [3] deals with mouse LHR endogenously expressed in mLTC-1 cells (mouse (endogenous in mLTC-1)) (UniProt P30730).

The values that follow come from publication PMC5430435.

Sequence of UniProt P30730 (P30730 27-700): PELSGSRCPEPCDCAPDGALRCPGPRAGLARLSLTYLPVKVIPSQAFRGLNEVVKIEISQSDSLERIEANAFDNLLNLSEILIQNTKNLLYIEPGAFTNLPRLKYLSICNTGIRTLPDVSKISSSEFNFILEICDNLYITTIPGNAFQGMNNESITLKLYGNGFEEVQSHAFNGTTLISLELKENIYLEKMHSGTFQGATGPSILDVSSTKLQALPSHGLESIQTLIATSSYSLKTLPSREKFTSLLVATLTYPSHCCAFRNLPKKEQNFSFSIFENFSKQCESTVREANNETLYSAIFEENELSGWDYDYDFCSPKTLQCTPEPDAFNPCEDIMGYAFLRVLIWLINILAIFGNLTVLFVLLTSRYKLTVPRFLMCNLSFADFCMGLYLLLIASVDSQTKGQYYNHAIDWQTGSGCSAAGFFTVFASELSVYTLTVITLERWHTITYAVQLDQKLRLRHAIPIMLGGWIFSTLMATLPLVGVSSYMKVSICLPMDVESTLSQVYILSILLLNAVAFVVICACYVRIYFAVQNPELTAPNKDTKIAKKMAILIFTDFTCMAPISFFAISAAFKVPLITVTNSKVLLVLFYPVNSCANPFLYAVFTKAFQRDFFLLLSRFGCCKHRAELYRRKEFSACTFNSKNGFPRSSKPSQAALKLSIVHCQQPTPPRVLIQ

As for “human recombinant luteinizing hormone rhLH (Luveris) (from UniProt P01215 25-116; P01229 21-141) (ligand)”, in test [1], the Cre-reporter assay (pSOM-Luc luciferase) in HEK293 cells expressing hLH/CGR, 6 hours with increasing doses; EC50 is 215 pM and the cAMP production (BRET sensor CAMYEL) in HEK293 cells expressing hLH/CGR, 30 minutes with increasing doses; EC50 worked out at 0.286 nM. In test [2], this substance showed a β-arrestin 2 recruitment (BRET between hLH/CGR-Rluc8 and yPET-β-arrestin 2) in HEK293 cells, 30 minutes with increasing doses; EC50 of 129 nM. In test [3], this substance had a Cre-reporter assay (pSOM-Luc luciferase) in mLTC-1 cells, 6 hours with increasing doses; EC50 of 318 pM; a cAMP (BRET sensor CAMYEL) in mLTC-1 cells, 30 minutes with increasing doses; EC50 of 0.459 nM; a cAMP (HTRF) in native mLTC-1 cells, 30 minutes with increasing doses; EC50 of 1.98 nM; a progesterone production by mLTC-1 cells (ELISA of supernatants), 3 hours with increasing doses; EC50 of 0.306 nM. This substance showed a testosterone production by mLTC-1 cells (HTRF of supernatants), 3 hours with increasing doses; EC50 in test [3] of 0.0291 nM.

In test [1], “recombinant human chorionic gonadotropin rhCG (Ovitrelle) (from UniProt P01215 25-116; P0DN86 21-165) (ligand)” had a Cre-reporter assay (pSOM-Luc luciferase) in HEK293 cells expressing hLH/CGR, 6 hours with increasing doses; EC50 of 37.5 pM and a cAMP production (BRET sensor CAMYEL) in HEK293 cells expressing hLH/CGR, 30 minutes with increasing doses; EC50 of 0.0176 nM. This substance also showed a β-arrestin 2 recruitment (BRET between hLH/CGR-Rluc8 and yPET-β-arrestin 2) in HEK293 cells, 30 minutes with increasing doses; EC50 in test [2] of 10.3 nM. In test [3], this substance gave a Cre-reporter assay (pSOM-Luc luciferase) in mLTC-1 cells, 6 hours with increasing doses; EC50 of 25 pM; a cAMP (BRET sensor CAMYEL) in mLTC-1 cells, 30 minutes with increasing doses; EC50 of 0.0688 nM; a cAMP (HTRF) in native mLTC-1 cells, 30 minutes with increasing doses; EC50 of 0.0974 nM; a progesterone production by mLTC-1 cells (ELISA of supernatants), 3 hours with increasing doses; EC50 of 0.0197 nM. Moreover, the testosterone production by mLTC-1 cells (HTRF of supernatants), 3 hours with increasing doses; EC50 in test [3] is 0.00219 nM.
